Several values for one entry are separate records, joined by “and”; a condition that tells them apart may be missing. Identical values can stand only once.
Experiments:
[1] = biological target: biotin-IZ-CD95L (human); assay: SEC; Superdex 75 10/300 GL (Fig. 3A) or ENrich SEC 70 10 x 300 (Fig. 3B, C); PBS pH 7.4, 0.3 ml/min; sizes from a standard curve of protein standards; peak shares from Gaussian fits
[2] = biological target: CD95-His (Sino Biological) (UniProt P25445)
[3] = biological target: CD95-His (Sino Biological) (UniProt P25445); assay: ELISA; CD95-His coated at 2 µg/ml in PBS overnight at 4 °C; biotin-IZ-CD95L or FLAG-CD95L 0.1 nM to 100 nM in 0.5% BSA/PBST, 2 h at r.t.; detected with anti-CD95L antibody and HRP secondary; 4-parameter logistic fit
[4] = biological target: IZ-CD95L (after His-tag cleavage with TEV protease) (human); assay: SEC; Superdex 75 10/300 GL (Fig. 3A) or ENrich SEC 70 10 x 300 (Fig. 3B, C); PBS pH 7.4, 0.3 ml/min; sizes from a standard curve of protein standards; peak shares from Gaussian fits

Chain of CD95-His (Sino Biological) (P25445 26-173): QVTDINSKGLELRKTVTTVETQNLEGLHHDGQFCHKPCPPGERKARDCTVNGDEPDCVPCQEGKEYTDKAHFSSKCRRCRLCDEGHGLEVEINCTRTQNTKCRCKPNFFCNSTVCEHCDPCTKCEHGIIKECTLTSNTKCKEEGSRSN

| Substance | percent of the protein in the trimer peak (Peak B, Gaussian fit) [1] [%] | stoichiometry N [1] | Max (%) of apoptotic Hela WT cells (endogenous CD95), apoptosis dynamics assay, 1000 ng/ml ligand [2] [%] | Kd [3] [nM] | percent of the protein in the trimer peak (Peak B, Gaussian fit) [4] [%] | stoichiometry N [4] |
| --- | --- | --- | --- | --- | --- | --- |
| biotin-IZ-CD95L (ligand) | 48 | 3 and 2 | 75.7 | 0.68 |  |  |
| IZ-CD95L (after His-tag cleavage with TEV protease) (ligand) |  |  | 72.9 |  | 55 | 3 and 2 |
